According to US9127073B2, “Rock2 and Rock3, two new gain-of-function variants of the cytokinin receptors AHK2 and AHK3” (Freie Universitat Berlin, priority 2009, dated 2015):

Experiments:
[1] = system: Arabidopsis thaliana Columbia (Col-0); assay: Vegetative growth and fresh weight of mutant alleles in wild-type background; assay type: in vivo; conditions: for vegetative growth of wild-type plants: mutant allele in Col-0 background, compared to wild type
Experimental: (§1) The Columbia (Col-0) ecotype of Arabidopsis thaliana was used as the wild type. Plants were grown in the greenhouse on soil or under sterile conditions in Petri dishes containing ATS-medium (Estelle, M. A., and Somerville, C. (1986). Auxin-resistant mutants of Arabidopsis thaliana with an altered morphology. Mol. Gen. Genet. 206, 200-206). All plants were grown at 22° C. under long-day conditions (16 h light/8 h dark).
In order to analyze the consequences of the rock2 and rock3 mutations in wild type, the rock2 and rock3 suppressor mutants in 35S:CKX1 background were crossed to wild-type Columbia. […] The F2 generation was screened for rock2 and rock3 plants in wild-type background (called then rock2 and rock3 mutants).
(§2) At 18 days after germination digital pictures were taken of rosettes and the rosette diameter was measured using the Scion Image program (Scion Corporation, Frederick, Md., USA). Flowers at stage 14 were photographed and their size was also measured using the Scion Image program.
(§3) Fresh weights were measured by weighting either rosettes, shoots without rosettes, or whole aerial parts of the plants. The final plant height and the number of siliques were determined after termination of flowering. For analysis of seed yield, plants were put into paper bags after termination of flowering. After plants were kept dry for additional three weeks, total seed weight was determined.

[2] = system: Arabidopsis thaliana Columbia (Col-0); assay: Natural leaf senescence of leaf 6 (Fv/Fm of PSII, chlorophyll content) under long-day conditions; assay type: in vivo
Experimental: as §1
The maximum efficiency of PSII photochemistry (Fv/Fm ratio) of dark adapted plants was measured with FluorCam (Photon Systems Instruments, Brno, Czech Republic). Chlorophyll contents of individual leaves were measured using the Chlorophyll Meter SPAD-502 (Konika Minolta, Bremen, Germany), taking the mean value of two measurements on the same leaf.

[3] = system: 35S:CKX1 plants; assay: Reversion of the cytokinin-deficiency phenotype in the 35S:CKX1 background; assay type: in vivo, Arabidopsis thaliana
Experimental: Approximately 25000 35S:CKX1 seeds (Werner, T., Motyka, V., Laucou, V., Smets, R., Van Onckelen, H., and Schmülling, T. (2003). Cytokinin-deficient transgenic Arabidopsis plants show multiple developmental alterations indicating opposite functions of cytokinins in the regulation of shoot and root meristem activity. Plant Cell 15, 2532-2550) were soaked for 16 h in 100 ml 0.2% (v/v) ethyl methane sulfonate at room temperature. The M1 generation was grown as single plants and the M2 generation was screened for plants with wild-type-like phenotype.
Mapping populations for rock2 and rock3 were generated by crossing the rock2 35S:CKX1 and rock3 35S:CKX1 plants with wild type ecotype Landsberg erecta. The F2 progeny plants were used to map rock2 and rock3.
In order to compare the consequences of the rock3 mutation with those of the ore12 mutation the latter was introgressed into the 35S:CKX1 background (the rock3 was identified in this background). […] However, at different time points during development the degree of reversion is less strong than the reversion achieved with the rock3 allele. This difference is most evident for seedling size and rosette diameter. These two parameters are good indicators for a changed cytokinin status of the CKX1ox plants.

[4] = system: Arabidopsis thaliana Columbia (Col-0); assay: Shoot parameters of mutant plants and transgenic lines (height, siliques, stem thickness, flower size); assay type: in vivo; conditions: compared to wild-type or ore12 plants; for size of flowers: flowers at stage 14
Experimental: as §1
For the construction of the pAHK2:rock2 transgene a 2124 by promoter region of AHK2 was amplified by PCR from genomic DNA of A. thaliana Col-0 and cloned with Gateway™ technology into the pDONR™ P4-P1R entry vector (Invitrogen, Karlsruhe, Germany). After cloning the AHK2 coding sequence with Gateway™ technology into the pDONR™ 221 entry vector (Invitrogen) the rock2 point mutation was introduced by PCR based mutagenesis with the “QuickChange Site-Directed Mutagenesis”-Kit (Stratagene, La Jolla, USA) to obtain the rock2 Allele. Both fragments were combined with Multisite Gateway™ recombinational cloning in the pK7m24GW,3 vector (Karimi et al., 2005). To obtain the pAHK3:rock3 construct a 2062 bp promoter region of AHK3 was amplified by PCR from genomic DNA of A. thaliana Col-0 and the fragment was inserted into pDONR™P4-P1R entry vector (Invitrogen). The AHK3 cDNA containing the open reading frame of the gene was PCR-amplified from A. thaliana Col-0 and cloned into pDONR™222 entry vector (Invitrogen). To introduce the rock3 point mutation the “QuickChange Site-Directed Mutagenesis”-Kit (Stratagene, La Jolla, USA) was used to get the rock3 allele. The AHK3 promoter and the ROCK3 cDNA were combined with Multisite Gateway™ recombinational cloning in the pK7m24GW,3 vector (Karimi, M., De Meyer, B., and Nilson, P. (2005). Modular cloning in plant cells. Trends Plant Sci. 10, 103-105). Both constructs were introduced into Agrobacterium tumefaciens strain GV3101 and A. thaliana Col-0 plants were transformed using the floral-dip method (Clough, S. J., and Bent, A. F. (1998). Floral dip: a simplified method for Agrobacterium-mediated transformation of Arabidopsis thaliana. Plant J. 16, 735-743). Transgenic lines were selected using kanamycin and propagated into the T3 or T4 generation.
as §2, §3

B1: rock3: constitutively active gain-of-function variant of cytokinin receptor AHK3 of Arabidopsis thaliana, SEQ ID No. 2, encoded by SEQ ID No. 4 (protein, listed as Arabidopsis thaliana)
chain: MSLFHVLGFGVKIGHLFWMLCCWFVSWFVDNGIEDKSGLLVGSVGDLEKTKMTTLKKKNKMWFWNKISSSGLKIPSFSYQFLGSVKFNKAWWRKLVVVWVVFWVLVSIWTFWYFSSQAMEKRKETLASMCDERARMLQDQFNVSMNHVQAMSILISTFHHGKIPSAIDQRTFSEYTDRISFERPLTSGVAYAMRVLHSEREEFERQQGWTIRKMYSLEQNPVHKDDYDLEALEPSPVQEEYAPVIFAQDTVSHVVSLDMLSGKEDRENVLRARSSGKGVLTAPFPLIKTNRLGVILTFAVYKRDLPSNATPKERIEATNGYLGGVFDIESLVENLLQQLASKQTILVNVYDITNHSQPISMYGTNVSADGLERVSPLIFGDPLRKHEMRCRFKQKPPWPVLSMVTSFGILVIALLVAHIIHATVSRIHKVEEDCDKMKQLKKKAEAADVAKSQFLATVSHEIRTPMNGVLGMLHMLMDTELDVTQQDYVRTAQASGKALVSLINEVLDQAKIESGKLELEEVRFDLRGILDDVLSLFSSKSQQKGVELAVYISDRVPDMLIGDPGRFRQILTNLMGNSIKFTEKGHIFVTVHLVDELFESIDGETASSPESTLSGLPVADRQRSWENFKAFSSNGHRSFEPSPPDINLIVSVEDTGVGIPVEAQSRIFTPFMQVGPSISRTHGGTGIGLSISKCLVGLMKGEIGFSSTPKVGSTFTFTAVFSNGMQPAERKNDNNQPIFSEFRGMKAVVVDHRPARAKVSWYHFQRLGIRVEVVPRVEQALHYLKIGTTTVNMILIEQEIWNREADDFIKKLQKDPLFLSPKLILLANSVESSISEALCTGIDPPIVIVKPLRASMLAATLQRGLGIGIREPPQHKGPPALILRNLLLGRKILIVDDNNVNLRVAAGALKKYGADVVCAESGIKAISLLKPPHEFDACFMDIQMPEMDGFEATRRIRDMEEEMNKRIKNGEALIVENGNKTSWHLPVLAMTADVIQATHEECLKCGMDGYVSKPFEAEQLYREVSRFFNSPSDTES
**Q.** How did the “vegetative growth of wild-type plants” value [1] turn out when B1 was run?
**A.** Its value is “significantly enhance the vegetative growth”.

**Q.** What about the “longer life time of leaves compared to wild-type leaves” value ([2]; leaf 6, long-day conditions) of the same molecule?
**A.** The value was “about ten”.

**Q.** What about the “reversion of the phenotypic consequences of CKX1 overexpression (cytokinin deficiency)” value [3] of the same molecule?
**A.** Its value is “suppress the phenotypic consequences of cytokinin deficiency”.

**Q.** And the stem thickness [4]?
**A.** The stem thickness was “thicker stems”.

**Q.** And the size of flowers [4]?
**A.** Its size of flowers is “bigger flowers”.

B2: rock2: constitutively active gain-of-function variant of cytokinin receptor AHK2 of Arabidopsis thaliana, SEQ ID No. 1, encoded by SEQ ID No. 3 (protein, listed as Arabidopsis thaliana)
chain: MSITCELLNLTSKKAKKSSSSDKKWLKKPLFFLILCGSLVIVLVMFLRLGRSQKEETDSCNGEEKVLYRHQNVTRSEIHDLVSLFSDSDQVTSFECHKESSPGMWTNYGITCSLSVRSDKQETRGLPWNLGLGHSISSTSCMCGNLEPILQQPENLEEENHEEGLEQGLSSYLRNAWWCLILGVLVCHKIYVSHSKARGERKEKVHLQEALAPKKQQQRAQTSSRGAGRWRKNILLLGILGGVSFSVWWFWDTNEEIIMKRRETLANMCDERARVLQDQFNVSLNHVHALSILVSTFHHGKIPSAIDQRTFEEYTERTNFERPLTSGVAYALKVPHSEREKFEKEHGWAIKKMETEDQTVVQDCVPENFDPAPIQDEYAPVIFAQETVSHIVSVDMMSGEEDRENILRARASGKGVLTSPFKLLKSNHLGVVLTFAVYDTSLPPDATEEQRVEATIGYLGASYDMPSLVEKLLHQLASKQTIAVDVYDTTNTSGLIKMYGSEIGDISEQHISSLDFGDPSRNHEMHCRFKHKLPIPWTAITPSILVLVITFFVGYILYEAINRIATVEEDCQKMRELKARAEAADIAKSQFLATVSHEIRTPMNGVLGMLKMLMDTDLDAKQMDYAQTAHGSGKDLTSLINEVLDQAKIESGRLELENVPFDMRFILDNVSSLLSGKANEKGIELAVYVSSQVPDVVVGDPSRFRQIITNLVGNSIKFTQERGHIFISVHLADEVKEPLTIEDAVLKQRLALGCSESGETVSGFPAVNAWGSWKNFKTCYSTESQNSDQIKLLVTVEDTGVGIPVDAQGRIFTPFMQADSSTSRTYGGTGIGLSISKRLVELMQGEMGFVSEPGIGSTFSFTGVFGKAETNTSITKLERFDLAIQEFTGLRALVIDNRNIRAEVTRYELRRLGISADIVSSLRMACTCCISKLENLAMILIDKDAWNKEEFSVLDELFTRSKVTFTRVPKIFLLATSATLTERSEMKSTGLIDEVVIKPLRMSVLICCLQETLVNGKKRQPNRQRRNLGHLLREKQILVVDDNLVNRRVAEGALKKYGAIVTCVESGKAALAMLKPPHNFDACFMDLQMPEMDGFEATRRVRELEREINKKIASGEVSAEMFCKFSSWHVPILAMTADVIQATHEECMKCGMDGYVSKPFEEEVLYTAVARFFEPC
**Q.** B2 was tested. Which “increase in fresh weight of rosettes and whole plant over the complete life cycle” value ([1]; difference particularly evident at 32-40 DAG) did it give?
**A.** Its value is “effect is strongest”.

**Q.** And the “vegetative growth of wild-type plants” value [1]?
**A.** Its value is “significantly enhance the vegetative growth”.

**Q.** What about the “onset of leaf senescence” value ([2]; leaf 6, compared to wild type and among mutants) of the same molecule?
**A.** Its value is “earliest onset of leaf senescence”.

**Q.** What about the “reversion of the phenotypic consequences of CKX1 overexpression (cytokinin deficiency)” value [3] of the same molecule?
**A.** The value was “suppress the phenotypic consequences of cytokinin deficiency”.

**Q.** And the “number of siliques on the main stem” value [4]?
**A.** Its value is “more siliques on the main stem”.

**Q.** And the “shoot height (plant height)” value [4]?
**A.** Its value is “increased”.

**Q.** And the stem thickness [4]?
**A.** Its stem thickness is “thicker stems”.

**Q.** What about the size of flowers [4] of the same molecule?
**A.** Its size of flowers is “bigger flowers”.
